The data set can be described thus: label from the status in PepcDB records.
“VPSLATAIGSSGDRPAALAELIGIIQNDGIRLPPVRIDSLHFAADTPYDTELIINPELGQRVLPSEVATAMREALSQVVDGGTAKRVQGTFKMQDGSVLAMGGKTGTGDNRIESIGAGGRILSSRAINRTATFVFYIGDNHFGALTAFVPGRAAEGFRFTSALPVQVLKGMAPILTPYLENHGQAMCNAPLADPPTGA”: the protein production result is on record as “failed”.
As for “MYDLRPRTLTFLEVALPPTTDTTPIFSLLFFSQCSVFKGFSRSTSSAEAGGVLGGSTRVLICSVSSLVKIEDCKVKIFDKLSEKAEKVLEIGIGTGPNMRYYAARNSNVTLYGLDPNPKMKKYARKSATKAGLKPKNFRFKQGVGEAIPLKDNSVDAVVATLVLCSVSDVTQTLKEIKRVLRQGGVFIFLEHVAAKDGSFFKRLQKLLDPLQQRLADGCHLARNTRECILEAGFSGGVEVQTFSMYSFPWMTRPHIYGLAYN”, the protein production result is “not failed”.
Next, “MKNIKIMRLVTGEDIIGNISESQGLITIKKAFVIIPMQATPGKPVQLVLSPWQPYTDDKEIVIDDSKVITITSPKDDIIKSYESHTSEIITPSGLITET”: “not failed”.
Next, “MQALTTYKCIEKGIVVWLTGLPGSGKTTIATRLADLLQKEGYRVEVLDGDWARTTVSEGAGFTREERLRHLKRIAWIARLLARNGVIVICSFVSPYKQARNMVRRIVEEEGIPFLEIYVKASLEEVIRRDPKGLYKKALKGELENFTGITDPYEPPENPQLVLDTESNTIEHNVSYLYSLVKAVIE”: “not failed”.
Next, “MYDHILLASDGTEASTNAESHAISLAAEHGAALHVLYVVDEDVYTAYSGDEYVDESEGPEHGLEETGQETLARIQADAEASGVDATTTLKHGRPAESVIETADEADVDLLVLGTKRRPAEYRSLLGSITDKVLRLSERPAVVVKTEVEE”: “failed”; “MPQVKLKEGEPVDVAIRRFKRSCEKAGVLADVRKREFYEKPTQERKRKKAAAVKRYQKKLARESVRTTRLY”: “failed”; “MSSKIFCKSWGAEYIAADVVRFRLWATGQQKVMLRLAGKDQEMQANGDGWFTLDVAGVTPGTEYNFVLSDGMVVPDPASRAQKTDVNGPSYVVDPGSYTWRNTGWKGSRWEQAVVYEMHTGTFTPEGTFRAAIAKLPYLAELGVTVIEVMPVAQFGGERGWGYDGVLLYAPHSAYGTPDDFKAFIDAAHGYGLSVVLDIVLNHFGPEGNYLPLLAPAFFHKERMTPWGNGIAYDVDAVRRYIIEAPLYWLTEYHLDGLRFDAIDQIEDSSARHVLVEIAQRIREDITDRPIHLTTEDSRNIISLHPRDQDGNAPLFTAEWNDDFHNAVHVFATGETQAYYNDFADAPEKHLARALAEGFAYQGEISPQTGEPRGVKSTGQPPVAFVDFIQNHDQVGNRAQGDRLITLAGAERTKVLLATLLLSPHIPLLFMGEEYGESRPFLFFTDFHGDLARAVREGRAKEFADHAGENVPDPNAPETFQRSKLNWKQQHSEEGKAWLAFTRELLLLRQKHIVPLLSAARESSGTVLQTAPGFIAVSWRFPGGTLSLALNISATTVLLPDLPGKTLFAWPNESTGSLSQHSLIVRLAQGESAS”: “not failed”.
Consider “MDMYHTKILKAIESEDYISVRRRVLRQLVESLIYEGIITPARIEKEEQILFLIQGLDEDNKSVTYECYGRERITFGRISIDSLIVRVQDGKQEIQSVAQFLEEVFRVVNVEQTKLDSFIHELEQTIFKDTIAQYERCNKLKYTQKSYDELENHLIDGHPYHPSYKARIGFQYRDNFRYGYEFMRPIKLIWIAAHKKNATVGYENEVIYDKILKSEVGERKLEAYKERIHSMGCDPKQYLFIPVHPWQWENFIISNYAEDIQDKGIIYLGESADDYCAQQSMRTLRNVTNPKRPYVKVSLNILNTSTLRTLKPYSVASAPAISNWLSNVVSQDSYLRDESRVILLKEFSSVMYDTNKKATYGSLGCIWRESVHHYLGEQEDAVPFNGLYAKEKDGTPIIDAWLNKYGIENWLRLLIQKAIIPVIHLVVEHGIALESHGQNMILVHKEGLPVRIALKDFHEGLEFYRPFLKEMNKCPDFTKMHKTYANGKMNDFFEMDRIECLQEMVLDALFLFNVGELAFVLADKYEWKEESFWMIVVEEIENHFRKYPHLKDRFESIQLYTPTFYAEQLTKRRLYIDVESLVHEVPNPLYRARQLNIQKSVATGGNYANC”, for which the protein production entry is “failed”.
The same measure for “MPLLFDSQMTPITNSGWRRHWFEIVYRHDTPPSRNFDLLLMSAILGSVLVVMLDSVLILQAHWKYFLYTLEWLFTLIFTADYLIRLVVVQQRLRYVLSIWGIIDLLSILPTYLSLFMPGTQSLLIVRVLRLLRLFRILKMTHYVEESGELIQALWRSRRKVMLFICTVMTIAMIAGATMYVIEGPQHGFTSIPTGMYWAIVTMTTVGFGDITPQSTLGRFVTSALILIGYSIIAVPTGIYTAELTQGLLRSEEEHRHDMRTCPHCGLQGHDHDARYCRNCGGILPQTLHEPNPATQQ”: “failed”.
The same measure for “EKMTRDEIAYMLTNSEETLDADEIEMLQGVFSLDELMAREVMVPRTDAFMVDIQDDSQAIIQSILKQNYSRIPVYDGDKDNVIGIIHTKSLLKAGFVDGFDNIVWKRILQDPLFVPETIFVDDLLKELRNTQRQMAILLDEYGGMAGLVTLEDLLEEIVGEID”: “not failed”.
Turning to “MKTSQEELLPATRRALLHRIAVAQAEGRAPSLAAAVVRGGQTVWYGSRTSVDGHAPDENVQYRIGSITKTFTAVLVLRLRDEGVLDLGDPLEKHLPGTGAGEATIAELLAHTGGLAAESPAPWWERTPGSLRPELADVLGELPLRHPVGRRHHYSNPGYTLLGALVEELRGAPWEEVLRREVLEPLGMRRTSGDPRAPHAGGWAVHPWADVMLPEPAEDLGRMAPAGQLWSTTGDLARFAVFLAQGDERVLSADSVREMRTPAAPAEAADVMSGSAYGLGMQLQYRDGRLLVGHSGSLPGFLANLTVSVEDDLAAVVLVNCTSGPMPSAVAADLVRIVAEAEPRIPEPWRPLPDVDEGVLELAGQWYWGTQAFVLRLTVDGGVSLEPLSGVGRRARLRANGDGTWTGLDGYYAGELLKAVRRPDGSVSHLDLGSFVFTRQPYDEGAPVPGGVDPEGWRGIP”, the protein production entry is given as “failed”.
Next, “MDFHIRKATNSDAEAIQHVATTSWHHTYQDLIPSDVQDDFLKRFYNVETLHNRISATPFAVLEQADKVIGFANFIELEKGKSELAAFYLLPEVTQRGLGTELLEVGMTLFHVPLPMFVNVEKGNETAIHFYKAKGFVQVEEFTEDFYGYPLETIRFNLNH”: “not failed”.
The same measure for “MKSTEKKELSHFRLKLETYLNEHFPEMSGNNPFITARSDEALTAYCDAVAQGFSHPEAESMASEVLYQGLHFSRYDTLVSVLEREFEQELPSPLPERLAPILLKNKAIQSVFAKYDLTDDFEASPEYEHLYTELTGTIVLLIESNHLPTIGGGNDTV”: “not failed”; for “MAIKLSSIDQFEQVIEENKYVFVLKHSETCPISANAYDQFNKFLYERDMDGYYLIVQQERDLSDYIAKKTNVKHESPQAFYFVNGEMVWNRDHGDINVSSLAQAEE”: “not failed”; for “MALGPEGAADLQRQLTEWTVFTAHCWQARSPQTEVLIATSGGTSEAWQQWLGAVEVQPQAEGDLGDRLHQAFQDSWQVGCDRTVIIGSDCPQIEPHHLDEAFAVLQQADVVIGPASDGGYWLIGLSQPQPQLFQNIDWGSDRVLVQTLEAAQVADLQVAQLESLSDLDRPEDLNLWQPQPQLSVIITTLNEAANLPQTLALIGDAPVETLVVDGGSQDATVAIAQAWGAKVIHSPAGRGRQFNQGAAAAHGNILLFLHGDTRLPPRFWEHVLQTLQPPQVVAGAFQLQIDSPDWRLRWIERGVRWRSHWLQQPYGDQALFLSRDRWRAIGGFSTGPLLEDYRFVRQLRRQGTIAIASAAVMTSARRWQRRGVLQTTLLNQLILLAHHCGVSDQQLARWYRLEHHHHHH”: “not failed”.
Next, “MLDFLAANPLIALVVILAVGLAIGQIRVFGLSLGAAAVLFVALVVSTANTDIVIPMIVYQLGLAMFVYVIGLSAGPAFFSEFAKKGWKLTIFMLLLLATLIGLAWVLIKSLGLDAAIGTGMFTGALTSTPGMAAVVELIEGIDPSLASEPVIGYSLAYPGAVLGSIVVAAVGAKLLKVNHREDARKEGMITAPLVWKGVQLKPGITGRVGDLPRLAGESIIATRIVDDPHTHRLADPDLPITEGMELLINGTEEAVDRAIKALGEERETKIEDTELIYTRLTVSSPEVAGRTVAELDTVAHGFMIARIRQGDSEVVPKPDTVINYSDRIRVVVAPGRVAEVRRFLGDSEKSLADVNLLPLAIGLSLGLLLGAIPIPLPGGTTMSLGFGGGPIIAGLILGALKHTGPLTWQMPFHANRTISTLGLALFLAGVGTSAGAGFRAALTDSSSLIYMAGGLVITLASALLCAVIGMWVLRLRWDEAMGVAAGTTTNPAIISYLNGQTGTDLANRGYATVYPTAMIGKILGAQILFLLL”: “failed”; “MEIFEDVVRCGGFRAAALGRGVSSSAISQSISVLEEALGIRLLNRTTRSVAPTEAGEQLLERLRPALYEIRTAVDDLNQLRERPSGTVRINAPGPAADHVLCPLTFEFMKIYPDVNVEIVSDAAIIDIVEQGFDAGVRFGNQLAQDMIAMPLGPALRYAIVASPDYLRKRGRPHSPRDLLQHDCIRRRFPGGTMVTWKFARDGDEVEITPKGRLTLSSAHQELQAALAGSGIAHLFEDYVRDDVEQGRLVELLCDWKQKLPSWYLYYPSRRHTSAAMRAFLEYIRNQRQHPDRR”: “failed”.
For the sequence “DDANVVRDRDLEVDTTLKSLSQQIENIRSPEGSRKNPARTCRDLKMCHSDWKSGEYWIDPNQGCNLDAIKVFCNMETGETCVYPTQPSVAQKNWYISKNPKDKRHVWFGESMTDGFQFEYGGQGSDPADVAIQLTFLRLMSTEASQNITYHCKNSVAYMDQQTGNLKKALLLKGSNEIEIRAEGNSRFTYSVTVDGCTSHTGAWGKTVIEYKTTKSSRLPIIDVAPLDVGAPDQEFGFDVGPVCFL”, the protein production entry was “failed”.
Take “MRGVSELEVGKSNLPAESELELGLGLSLGGGAWKERGRILTAKDFPSVGSKRSAESSSHQGASPPRSSQVVGWPPIGLHRMNSLVNNQAMKAARAEEGDGEKKVVKNDELKDVSMKVNPKVQGLGFVKVNMDGVGIGRKVDMRAHSSYENLAQTLEEMFFGMTGTTCREKVKPLRLLDGSSDFVLTYEDKEGDWMLVGDVPWRMFINSVKRLRIMGTSEASGLAPRRQEQKDRQRNNPV”: the protein production entry is on record as “failed”.
The same measure for “METLRVSSKSRPNSVAGAIAALLRTKGEVEVQAIGPQAVNQAVKAIAIARGYIAPDNLDLVVKPAFVKLELENEERTALKFSIKAHPLET”: “not failed”.
Regarding “MAWMFLLLAAAFEVTFAMGMKYAEGFTRPWPSLLTVVAAVGGIYFLTLAMRELPVSVAYPIWTAIGSLGTVLLGCLLLGESLTAVKLVSVGLIVAGVAGLK”, the protein production result was “failed”.
With “MGRTVVVLGGGISGLAASYHLSRAPCPPKVVLVESSERLGGWIRSVRGPNGAIFELGPRGIRPAGALGARTLLLVSELGLDSEVLPVRGDHPAAQNRFLYVGGALHALPTGLRGLLRPSPPFSKPLFWAGLRELTKPRGKEPDETVHSFAQRRLGPEVASLAMDSLCRGVFAGNSRELSIRSCFPSLFQAEQTHRSILLGLLLGAGRTPQPDSALIRQALAERWSQWSLRGGLEMLPQALETHLTSRGVSVLRGQPVCGLSLQAEGRWKVSLRDSSLEADHVISAIPASVLSELLPAEAAPLARALSAITAVSVAVVNLQYQGAHLPVQGFGHLVPSSEDPGVLGIVYDSVAFPEQDGSPPGLRVTVMLGGSWLQTLEASGCVLSQELFQQRAQEAAATQLGLKEMPSHCLVHLHKNCIPQYTLGHWQKLESARQFLTAHRLPLTLAGASYEGVAVNDCIESGRQAAVSVLGTEPNS”, the protein production result is recorded as “failed”.
For the sequence “MRGGGILDYIGYFLVAIIVIFVVVKLLEWPIKMLVKLIINGVIGAIMLFALNIFGKYIGISIGINIVTALIAGIFGIPGVIFLVILKFIM”, the protein production result is recorded as “failed”.
The same measure for “KELIQNIIEESYTDSQFTLSVLSEKLDLSSGYLSIMFKKNFGIPFQDYLLQKRMEKAKLLLLTTELKNYEIAEQVGFEDVNYFITKFKKYYQITPKQYRE”: “not failed”.

Source of the values: a protein production outcome set (Wang et al. 2014).
